B1: TPR t1 (parent)
chain: GACCAAUCUGCCCUCAGAGCUCGAGAACAUCUUCGGAUGCAGAGGAGGCAGGCUUCGGUGGCGCGAUAGCGCCAACGUCCUCAACCUCCAAUGCAUCCCACCACAUGAUGAUGCCUGAAGAGCCUUGGUUUUUUG

Variants of: B1
Test: polymerase ribozyme fitness, log enrichment relative to wild type (log ratio); higher = more active; in vitro selection for triplet polymerase activity
Outline: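 To select mutant libraries of each subunit of a heterodimeric triplet polymerase ribozyme, built by PCR and transcribed, each was annealed with a biotinylated primer, partner subunit and triplets, then incubated frozen at −7 °C. Extended constructs were gel-excised, captured on streptavidin beads and amplified by RT-PCR, in one round carried out in triplicate. Illumina sequencing of input and output libraries kept genotypes with ≥10 input reads and ≥1 read per output. Fitness is the base-2 logarithm of genotype enrichment relative to wild-type enrichment, from inverse-variance-weighted replicate averages.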

Row | Variant | polymerase ribozyme fitness (log ratio)
1 | GACCAAUCUGCCCUCAGAUCUCGAGAACAUCUUCGGAUGCAGAGGAGGCAGGCUUCGGUGGCGCGAUAGCACCAACGUCCUCAACCUCCAAUGCAUCCCACCACAUGAUGAUGCCUGAAGAGCCUUGGUUUUUUG | -3.31
2 | GACCAAUCUGCCCUCAGAUCUCGAGAACAUCUUCGGAUGCAGAGGAGGCAGGCUUCGGUGGCCCGAUAGCGCCAACGUCCUCAACCUCCAAAGCAUCCCACCACAUGAUGAUGCCUGAAGAGCCUUGGUUUUUUG | -5.54
3 | GACCAAUCUGCCCUCAGAUCUCGAGAACAUCUUCGGAUGCAGAGGAGGCAGGCUUCGGUGGCGCGAUAGCGACAACGUCCUCAACCUCCAAUGCAUCCCACCACAUGAUGAUGCCUGAAGAGCCUUGGUUUUUUG | -3.06
4 | GACCAAUCUGCCCUCAGAUCUCGAGAACAUCUUCGGAUGCAGAGGAGGCAGGCUUUGGUGGCGCGAUAGCGCCAACGUCCUCAACCUCCAAUGCAUCCCACCACAUGAUGAUGCCUGAAGAGCCUUGGUUUUUUG | -2.37
5 | GACCAAUCUGCCCUCAGAUCUCGAGAACAUCUUCGGAUGCAGAGGAGGCAGGCUUCGGUGGUGCGAUAGCGCCAACGUCCUCAACCUCCAAUGCAUCCCACCACAUGAUGAUGCCUGAAGAGCCUUGGUUUUUUG | -3.18
6 | GACCAAUCUGCCCUCAGAUCUCGAGAACAUCUUCGGAUGCAGAGGAUGGAGGCUUCGGUGGCGCGAUAGUGCCAACGUCCUCAACUCCCAAUGCAUCCCACCACAUGAAGAUGCUUGAAGAGCCUUGGUUUUUUG | -6.81
7 | GACCAAUCUGCCCUCAGAUCUCGAGAACAUCUUCGGAUGCAGAGGAGGCAGGCUUGGGUGGCGCGAUAGCGCCAACGUCCUCAACCUCCAAUGCAUCCCACCACACGAUGAUGCCUGAAGAGCCUUGGUUUUUUG | -5.42
8 | GACCAAUCUGCCCUCAGAUCUCGAGAACAUCUUCGGAUGCAGAGGAGGCAGGCUUCGGUGGCGCGAUAGUGCCAACGUCCUCAACCUCCAAUGAAUCCCACCACAUGAUGAUGUCUGAAGAGCCUUGGUUUUUUG | -2.13
9 | GACCAAUCUGCCCUCAGAUUUCGAGAACAUCUUCGGAUGCAGAGGAGGCAGGCUUCGGUGGCGCGAUAGCGCCAACGUCCUCAACCUCCAAUGCAUCCCACCACAUGAUGAUGCCUGAAGAGCCUUGGUUUUUUG | -2.46
10 | GACCAAUCUGCCCUCAGAUCUCGAGAACAUCUUCGGAUGCAGAGGAGGCAGGCUUCGGUGGCGCGAUAGCCCCAACGUCCUCAACCUCCAAUGCAUCCCACCACAUGAUGAUGCCUGAAGUGCCUUGGUUUUUUG | -2.34
11 | GACCAAUCUGCCCUCAGAUCUCGAGAACAUCUUCGGAUGCAGAGGAGGCAGGCUUCGGUGGCGCGAUAGCGCCAACGUCCUCAACCUCGAAUGCAUCCCACCACAUGAUGAUGCCUGAAGAGCCUUGGUUUUUUG | -4.36
12 | GACCAAUCUGCCCUCAGAUCUCGAGAACAUCUUCGGAUGCAGAGGAGGCAGGCUUCGGUGGCGCGAUAGAGCCAACGUCCUCAACCUCCAAUGCAUCCCACCACAUGAUGAUGCCUGAAGAGCCUUGGUUUUUUG | -4.07
13 | GACCAAUCUGCCCUCAGAUCUCGAGAACAUCUUCGGAUGCAGAGGAGGCAGGCUUCGGUGGCGCGAUAGGGCCAACGUCCUCAACCUCCAAUGCAUCCCACCACAUGAUGAUGCCUGAAGAGCCUUGGUUUUUUG | -5.52
14 | GACCAAUCUGCCCUCAGAUCUCGAGAACAUCUUCGGAUGCAGAGGAGGCAGGCUUCGGUGGCGCGAUAGUGCCAACGUCCUCAACCUCCAAUGCAUCCCACCACAUGAUGAUGCCUGAAGAGCCUUGGUUUUUUG | -3.23
15 | GACCAAUCUGCCCUCAGAUCUCGAGAACAUCUUCGGAUGCAGAGGAGGCAGGCUUCGGUGGCGCGAUAGCGCCAACGUCCUCAACCUUCAAUGCAUCCCACCACAUGAUGAUGCCUGAAGAGCCUUGGUUUUUUG | -3.2
16 | GACCAAUCUGCCCUCAGAUCUCGAGAACAUCUUCGGAUGCAGAGGAGGCAGGCUUCGGUGGCACGAUAGCGCCAACUUCCUCAACCUCCAAUGCAUCCCACCACAUGAAGAUGUCUCAAGAGCCUUGGUUUUUUG | -6.78
17 | GACCAAUCUGCCCUCAGAUCUCGAGAACAUCUUCGGAUGCAGAGGAGGCAGGCUUCGGUAGCGCGAUAGCGCCAACGUCCUCAACCUCCAAUGCAUCCCACCACAUGAUUAUGCCUGAAGAGCCUUGGUUUUUUG | -6.37
18 | GACCAAUCUGCCCUCAGAUCUCGAGAACAUCUUCGGAUCCAGAGGAGGCAGGUUUCGGUGGCGCGAUAGCUCCAACGUCCACAACCUCCAAUUCAUCCCACCACAUGAUGAUGACUGAAGAGCCUUGGUUUUUUG | -4.82
19 | GACCAAUCUGCCCUCAGAUCUCGAGAACAUCUUCGGAUGCAGAGGAGGCAGGCUUCGGUGGCGCGAUAGCGCCAACGUCCUCAACCUCUAAUGCAUCCCACCACAUGAUGAUGCAUGAAGAGCCUUGGUUUUUUG | -6.23
20 | GACCAAUCUGCCCUCAGAUCUCGAGAACAUCUUCGGAUGCAGAGGAGGCAAGCUUCGGUCGCGCGAUAGCGCCAACGUCCUCAACCUCCAAUGCAUCCCACCACAUGAUGAUGCCUGAAAAGCCUUGGUUUUUUG | -6.42
21 | GACCAAUCUGCCCUCAGAUCUCGAGAACAUCUUCGGAUGUAGAGGAUGCAGGCUUCGGUGACGCGAUAGCGCCAACGUCCUCAACCUCCAAUGCAUCCCACCACAAGAUGAUGCCUGAAGAGUCUUGGUUUUUUG | -6.98

Row | Variant | polymerase ribozyme fitness (log ratio)
22 | GACCAAUCUGCCCUCAGAUCUCGAGAACAUCUUCGGAUGCAAAGGAGGCAGGCUUCGGUGGCGCGAUAGCGCCAACGUCCUCAACCUCCAAUGCAUCCCACCACAUGAUGAUGCCUGAAGAGCCUUGGUUUUUUG | -3.15
23 | GACCAAUCUGCCCUCAGAUCUCGAGAACAUCUUCGGAUGCACAGGAGGCAGGCUUCGGUGGCGCGAUAGCGCCAACGUCCUCAACCUCCAAUGCAUCCCACCACAUGAUGAUGCCUGAAGAGCCUUGGUUUUUUG | -3.93
24 | GACCAAUCUGCCCUCAGAUCUCGAGAACAUCUUCGGAUGCAGAGGAGGCAGGCUUCGGUAGCGCGAUAGCGCCAACGUUCUCAACCUCCAAUGCAUCCCACCACAUGAUGAUGCCUGAACAGCCUUGGUUUUUUG | -2.44
25 | GACCAAUCUGCCCUCAGAUCUCGAGAACAUCUUCGGAUGCAGAGGAGGCAGGGAUCGGUGACGCGAUAGCGCCAACGUCCUCAACCUCCAAUGCAUCCCACCACAUGAUGAUGCCUGAAGAGCCUUGGUUUUUUG | -2.73
26 | GACCAAUCUGCCCUCAGAUCUCGAGAACAUCUUCGGAUGCAGAGGAGGCAGGCUUCGGUGGCGCGAUAGCACCAACGACCUCAACCUCCAAUGCAUCCCACCACAUGAUGAUGCCUGAAGAGCCUUGGUUUUUUG | -4.64
27 | GACCAAUCUGCCCUCAGAUCUCGAGAACAUCUUCGGAUGCAGAGGAGCCAGGCUUCGGUGGCGCGAUAGCGCCAACGUCCUCAACCUCCAAUGCAUCCCACCACAUGAUGAUGCCUGAAGAGUCUUGGUUUUUUG | -5.25
28 | GACCAAUCUGCCCUCAGAUCUCGAGAACAUCUUCGGAUGCAGAUGAGGCAGGCUUCGGUGGCGCGAUAGCGCCAACGUCCUCAACCUCCAAUGCAUCCCACCACAUGAUGAUGCCUGAAGAGCCUUGGUUUUUUG | -4.75
29 | GACCAAUCUGCCCUCAGAUCUCGAGAACAUCUUCGGAUGCAGAAGAGGCAGGCUUCGGUGGCGCGAUAGAGUCAACGUCCUCAACCUCCAAUGCAUCCCACCACAUGAUGAUGCCUGAAGAGCCUUGGUUUUUUG | -6.42
30 | GACCAAUCUGCCCUCAGAUCUCGAGAACAUCUUCGGAUGCAGAGGAGGCAGGGUUCGGUGGCGCGAUAGCGCAAACGUCCUCAACCUCCAAUGCAUCCCACCACAUGAUGAAGCCUGAAGAGCCUUGGUUUUUUG | -1.03
31 | GACCAAUCUGCCCUCAGAUCUCGAGAACAUCUUAGGAUGCAGAGGAGGCAGGCUUCGGUGGCGCGAUACCGCCAACGUCCUCAACCUCCAAUGCAUCCCACCACAUGAUGAUGUCUGAAGAGCCUUGGUUUUUUG | -6.59
32 | GACCAAUCUGCCCUCAGAUCUCGAGAACAUCUUCGGAUGCAGAGGAGGCAGGCUUCGGUGGGGCGAUAGCUCCAACGUCCUCAACCUCCAAUGCAUCCCACCACAUGAUGAUGCCUGAAGAGCCUUGGUUUUUUG | -3.71
33 | GACCAAUCUGCCCUCAGAUCUCGAGAACAUCUUCGGAUGCAGAGGAGGCAGGCUUCGGUGGCGCGAUAGCGCCAAUGUCCUCAACCUCCAAUGCAUCCCACCACAUGAUGAUGCCUGAAGAGCCUUGGUUUUUUG | -4.25
34 | GACCAAUCUGCCCUCAGAUAUCGAGAACAUCUUCGGAUGCAGAGGAGGCAGGCUUCGGUGGCGCGAUAGCGGCAACCUCCUCAACCUCCACUGAAUCCCACCACAAGAUGAUGCCUGAAGAGCCUUGGUUUUUUG | -5.31
35 | GACCAAUCUGCCCUCAGAUCUCGAGAACAUCUUCGGAUGCAGAGGAGGCAGGCUUCGGUGGCGCGAUAGCGCCAACGUCCUCAACCUCCAAUGAAUCCCACCACCUGAUGAUGACUGUAGAGCCUUGGUUUUUUG | -0.986
36 | GACCAAUCUGCCCUCAGAUCUCGAGAACAUCUUCGGAUGCAGAGGAGGCAGGCUUCGGUGAUGCGAUAGCGCCAACGUCCUCAACCUCCAAUGCAUCCCACCACAUGAUGAUGCCUGAAGAGCAUUGGUUCUUUG | -4.46
37 | GACCAAUCUGCCCUCAGAUCUCGAGAACAUCUUCGGAUGCAGAGGAGGCAGGGUUCGGUGGCGCGAUAGCGCCAACGUCCUCAACCUCCAGUGCAUCCCACCACAUGAUGAUGCCUGAAGAGCCUUGGUUUUUUG | -3.77
38 | GACCAAUCUGCCCUCAGAUCUCGAGAACAUCUUCGGAUGCAGAGGAGGCAGGCUUCGGUGGCGCGAUAUCGCCAACGUCCUCAACCUCCAAUGCAUCCCACCACAUGAUCAUGCCUGAAGAGCCUUGGUUUUUUG | -3.55
39 | GACCAAUCUGCCCUCAGAUCUCGAGAACAUCUUCGGAUGCAGAGGAGGCAGGGAUCGGUGGCGCGAUAGCGCCAACGUCCUCAACCUCCAAUGCAUCCCACCACAUGAUGAUGCCUGAAGAGCAUUGAUUUUUUG | -3.23
40 | GACCAAUCUGCCCUCAGAUCUCGAGAACAUCUUCGCAUGCAGAGGAGGCAGGCUUCGGUGGCGCGAUAGCGCCAGCGUCCUCAACCUCCAAUGCAUCCCACCACAUGAUGCUGCCUGAAGAGCCUUGGUUUAUUG | -5.05
41 | GACCAAUCUGCCCUCAGAUCUCGAGAACAUCUUCGGAUGCAGAGGAGGCAGGCUUCGGUGGCGCGAUAGCGCCAACGUCCUCAACCUCCAAUGCAUCCCACCACAUGAUGAUGCGUGAAGAGCCUUGGUGUUUUG | -5.08
42 | GACCAAUCUGCCCUCAGAUCUCGAGAACAUCUUCGGAUUCAGAGGAGACAGGCUUCGGUGGCCCGAUAGCGCCAACGUCCUCAACCUCCAAUGCAUCCCACCACAUGAUGGUGCCUGAAGAGCCUUGGUUUUUUG | -4.79

Source: the RNAGym collection of RNA variant scans (doi:10.1073/pnas.2313332121)
